Experimental data as given in patent US20190134153A1, “IMMUNOMODULATORY EFFECT OF INHALED KINASE INHIBITOR PEPTIDES IN LUNG” (MOERAE MATRIX, INC., priority 2017, published 2019).

Experiments:
Assay in all cases: Kinase Profiling Assay
Format in all cases: biochemical
Conditions in all cases: 100 μM
Fyn(h) = Fyn(h) (Homo sapiens, UniProt P06241)
Flt1(h) = Flt1(h) (Homo sapiens, UniProt P17948)
TBK1(h) = target: T1, TBK1(h) (Homo sapiens, UniProt Q9UHD2)
T1 sequence (Q9UHD2 1-729): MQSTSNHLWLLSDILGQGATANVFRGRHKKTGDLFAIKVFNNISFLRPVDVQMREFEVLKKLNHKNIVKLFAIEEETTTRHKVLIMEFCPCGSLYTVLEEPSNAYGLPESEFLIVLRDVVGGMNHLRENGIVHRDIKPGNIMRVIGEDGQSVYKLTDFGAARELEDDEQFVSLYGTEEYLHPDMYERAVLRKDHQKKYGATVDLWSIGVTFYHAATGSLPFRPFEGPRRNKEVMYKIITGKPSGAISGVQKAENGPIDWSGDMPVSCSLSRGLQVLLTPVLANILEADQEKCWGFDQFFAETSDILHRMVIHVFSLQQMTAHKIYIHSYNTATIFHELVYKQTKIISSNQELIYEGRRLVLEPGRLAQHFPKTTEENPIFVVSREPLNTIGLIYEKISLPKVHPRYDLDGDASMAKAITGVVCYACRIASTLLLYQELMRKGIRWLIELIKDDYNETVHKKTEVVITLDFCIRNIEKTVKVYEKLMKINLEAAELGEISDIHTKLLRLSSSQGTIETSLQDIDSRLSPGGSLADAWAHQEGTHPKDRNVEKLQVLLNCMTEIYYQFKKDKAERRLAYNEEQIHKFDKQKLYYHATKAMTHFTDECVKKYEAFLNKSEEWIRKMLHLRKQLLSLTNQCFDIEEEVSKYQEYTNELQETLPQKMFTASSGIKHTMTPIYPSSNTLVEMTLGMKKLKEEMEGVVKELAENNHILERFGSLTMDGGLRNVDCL

PDK1(h) = target: T2, PDK1(h) (Homo sapiens, UniProt O15530)
T2 sequence (O15530 1-556): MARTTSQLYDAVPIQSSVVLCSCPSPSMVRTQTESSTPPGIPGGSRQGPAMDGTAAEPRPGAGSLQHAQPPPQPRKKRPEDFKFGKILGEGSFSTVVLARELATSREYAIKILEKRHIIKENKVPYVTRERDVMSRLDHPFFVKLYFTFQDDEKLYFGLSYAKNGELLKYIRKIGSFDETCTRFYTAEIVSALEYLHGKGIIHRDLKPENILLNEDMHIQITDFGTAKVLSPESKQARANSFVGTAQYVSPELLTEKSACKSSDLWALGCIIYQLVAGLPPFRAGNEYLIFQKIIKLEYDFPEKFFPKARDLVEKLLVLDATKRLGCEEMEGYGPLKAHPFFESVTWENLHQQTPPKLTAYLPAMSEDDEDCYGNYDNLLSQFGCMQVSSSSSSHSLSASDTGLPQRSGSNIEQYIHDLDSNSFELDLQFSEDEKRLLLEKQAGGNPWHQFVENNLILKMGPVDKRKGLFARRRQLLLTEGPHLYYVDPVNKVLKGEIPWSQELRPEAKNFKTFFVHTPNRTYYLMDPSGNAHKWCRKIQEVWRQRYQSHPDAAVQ

Rse(h) = target: T3, Rse(h) (Homo sapiens, UniProt Q06418)
T3 sequence (Q06418 41-890): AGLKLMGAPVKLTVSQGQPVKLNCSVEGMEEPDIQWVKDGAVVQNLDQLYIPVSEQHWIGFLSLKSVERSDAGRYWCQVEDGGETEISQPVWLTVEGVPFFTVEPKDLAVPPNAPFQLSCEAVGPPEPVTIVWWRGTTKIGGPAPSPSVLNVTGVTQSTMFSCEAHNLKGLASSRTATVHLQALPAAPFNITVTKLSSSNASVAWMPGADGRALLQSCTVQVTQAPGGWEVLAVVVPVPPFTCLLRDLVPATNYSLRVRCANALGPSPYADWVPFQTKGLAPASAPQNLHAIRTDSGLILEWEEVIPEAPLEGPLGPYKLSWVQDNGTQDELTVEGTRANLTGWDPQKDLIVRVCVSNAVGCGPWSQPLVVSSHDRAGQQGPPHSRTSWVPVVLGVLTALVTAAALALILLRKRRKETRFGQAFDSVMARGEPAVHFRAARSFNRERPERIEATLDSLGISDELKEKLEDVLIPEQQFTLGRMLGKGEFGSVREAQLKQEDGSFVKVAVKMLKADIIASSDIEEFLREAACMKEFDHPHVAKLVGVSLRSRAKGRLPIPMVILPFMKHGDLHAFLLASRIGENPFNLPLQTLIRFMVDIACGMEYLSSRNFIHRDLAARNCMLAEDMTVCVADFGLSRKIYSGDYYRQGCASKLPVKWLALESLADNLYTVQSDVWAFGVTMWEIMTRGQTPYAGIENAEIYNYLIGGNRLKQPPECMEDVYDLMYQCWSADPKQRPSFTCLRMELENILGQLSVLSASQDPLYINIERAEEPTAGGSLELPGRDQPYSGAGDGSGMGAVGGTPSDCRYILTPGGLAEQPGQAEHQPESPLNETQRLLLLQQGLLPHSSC

SAPK4(h) = target: T4, SAPK4(h) (Homo sapiens, UniProt O15264)
T4 sequence (O15264 1-365): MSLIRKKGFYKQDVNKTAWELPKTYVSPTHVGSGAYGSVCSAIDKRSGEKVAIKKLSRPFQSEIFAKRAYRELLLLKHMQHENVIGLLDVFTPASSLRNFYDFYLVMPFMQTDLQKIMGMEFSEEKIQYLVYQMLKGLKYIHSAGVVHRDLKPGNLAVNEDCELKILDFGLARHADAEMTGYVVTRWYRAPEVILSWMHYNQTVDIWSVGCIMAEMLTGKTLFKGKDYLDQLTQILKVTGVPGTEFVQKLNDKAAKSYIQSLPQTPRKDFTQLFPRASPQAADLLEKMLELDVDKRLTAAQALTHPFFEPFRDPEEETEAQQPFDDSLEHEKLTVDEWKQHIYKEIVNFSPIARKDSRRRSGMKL

Flt1(h), sequence (P17948 27-1338): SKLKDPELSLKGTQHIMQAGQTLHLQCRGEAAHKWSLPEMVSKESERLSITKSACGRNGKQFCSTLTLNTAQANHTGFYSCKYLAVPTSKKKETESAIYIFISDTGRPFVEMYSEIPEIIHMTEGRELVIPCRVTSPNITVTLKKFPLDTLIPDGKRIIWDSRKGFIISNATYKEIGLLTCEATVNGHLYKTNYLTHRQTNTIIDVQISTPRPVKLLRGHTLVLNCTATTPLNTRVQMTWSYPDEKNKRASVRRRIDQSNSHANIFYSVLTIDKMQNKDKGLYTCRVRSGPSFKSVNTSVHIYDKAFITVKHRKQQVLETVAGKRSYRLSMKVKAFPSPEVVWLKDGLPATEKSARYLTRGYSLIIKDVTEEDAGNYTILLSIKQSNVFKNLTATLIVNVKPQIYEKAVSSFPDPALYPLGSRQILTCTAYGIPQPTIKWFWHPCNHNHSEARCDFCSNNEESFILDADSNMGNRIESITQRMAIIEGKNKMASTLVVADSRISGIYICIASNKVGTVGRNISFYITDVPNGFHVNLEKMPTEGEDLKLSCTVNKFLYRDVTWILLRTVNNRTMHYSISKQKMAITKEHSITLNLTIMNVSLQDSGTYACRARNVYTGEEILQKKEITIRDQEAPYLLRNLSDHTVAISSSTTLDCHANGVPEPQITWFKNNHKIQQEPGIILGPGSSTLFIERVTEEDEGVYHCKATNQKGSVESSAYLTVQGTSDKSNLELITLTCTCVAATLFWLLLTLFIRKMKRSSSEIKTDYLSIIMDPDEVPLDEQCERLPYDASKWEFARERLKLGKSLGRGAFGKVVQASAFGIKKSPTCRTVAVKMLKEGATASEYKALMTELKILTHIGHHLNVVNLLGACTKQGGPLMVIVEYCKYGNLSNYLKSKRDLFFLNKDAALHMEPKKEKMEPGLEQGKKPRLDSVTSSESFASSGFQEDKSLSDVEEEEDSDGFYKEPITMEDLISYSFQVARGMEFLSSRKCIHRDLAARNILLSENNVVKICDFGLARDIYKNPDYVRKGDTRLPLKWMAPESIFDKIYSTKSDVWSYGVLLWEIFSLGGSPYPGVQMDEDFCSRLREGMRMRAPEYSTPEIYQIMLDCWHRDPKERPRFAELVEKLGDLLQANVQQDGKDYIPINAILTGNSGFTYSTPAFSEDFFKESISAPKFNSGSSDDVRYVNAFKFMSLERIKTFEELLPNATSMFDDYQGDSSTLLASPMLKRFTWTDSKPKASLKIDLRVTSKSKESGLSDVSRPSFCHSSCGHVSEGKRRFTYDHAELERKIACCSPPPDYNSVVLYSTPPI
Fyn(h), sequence (P06241 whole entry): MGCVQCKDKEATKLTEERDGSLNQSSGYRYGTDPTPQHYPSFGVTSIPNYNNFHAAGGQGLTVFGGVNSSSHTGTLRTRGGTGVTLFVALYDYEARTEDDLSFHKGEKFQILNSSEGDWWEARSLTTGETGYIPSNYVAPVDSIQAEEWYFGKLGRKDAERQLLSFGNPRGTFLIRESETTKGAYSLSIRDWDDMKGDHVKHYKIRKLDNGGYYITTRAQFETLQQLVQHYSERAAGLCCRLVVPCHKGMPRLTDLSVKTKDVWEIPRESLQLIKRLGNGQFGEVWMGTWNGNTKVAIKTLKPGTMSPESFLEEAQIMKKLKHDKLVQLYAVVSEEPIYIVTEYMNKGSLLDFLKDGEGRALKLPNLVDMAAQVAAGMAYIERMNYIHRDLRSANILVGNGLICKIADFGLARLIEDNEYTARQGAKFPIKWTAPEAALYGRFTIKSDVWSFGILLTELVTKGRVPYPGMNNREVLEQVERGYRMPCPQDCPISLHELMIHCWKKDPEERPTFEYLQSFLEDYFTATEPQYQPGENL

Sequence	% activity (Fyn(h)) [%]	% activity (Flt1(h)) [%]	% activity (TBK1(h)) [%]	% activity (PDK1(h)) [%]	% activity (Rse(h)) [%]	% activity (SAPK4(h)) [%]
YARAAARQARAKALNRQLGVA [MMI-0200]	75	96	98	143	88	
KAFAKLAARLYRKALARQLGVAA [MMI-0400]	54	48	39	159	89	91
HRRIKAWLKKIKALARQLGVAA [MMI-0500]	83	27	16	178	63	48
FAKLAARLYRKALARQLGVAA [MMI-0300]	74	69	37	135	88	96
